# Experimental data published in paper PMC9482650, “Quantitative fragmentomics allow affinity mapping of interactomes” (Nature Communications, 2022).
# T1: LIN7A, O14910
# T1 sequence (O14910 103-200, limits assumed, looked up): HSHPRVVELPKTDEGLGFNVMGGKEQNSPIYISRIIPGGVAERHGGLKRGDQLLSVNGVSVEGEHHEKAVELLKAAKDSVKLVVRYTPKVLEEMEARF
# T2: RHPN1, Q8TCX5
# T2 sequence (Q8TCX5 508-602, limits assumed, looked up): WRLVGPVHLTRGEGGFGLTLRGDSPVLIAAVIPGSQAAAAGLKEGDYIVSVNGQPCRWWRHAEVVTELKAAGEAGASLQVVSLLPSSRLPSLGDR
# T3: PDZRN3_1, Q9UPQ7
# T3 sequence (Q9UPQ7 244-349, limits assumed, looked up): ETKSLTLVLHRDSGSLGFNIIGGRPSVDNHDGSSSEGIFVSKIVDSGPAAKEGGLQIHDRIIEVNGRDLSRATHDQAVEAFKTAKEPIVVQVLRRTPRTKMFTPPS
# T4: RADIL, Q96JH8
# T4 sequence (Q96JH8 971-1071, limits assumed, looked up): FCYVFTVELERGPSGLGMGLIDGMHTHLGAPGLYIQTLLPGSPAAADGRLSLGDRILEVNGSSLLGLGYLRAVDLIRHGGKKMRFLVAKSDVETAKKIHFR
# T5: GRIP1_5, Q9Y3R0
# T5 sequence (Q9Y3R0 568-668, limits assumed, looked up): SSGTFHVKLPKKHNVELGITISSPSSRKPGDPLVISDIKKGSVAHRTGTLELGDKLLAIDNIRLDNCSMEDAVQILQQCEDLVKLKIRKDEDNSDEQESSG
# T6: RAPGEF6, Q8TEU7
# T6 sequence (Q8TEU7 525-625, limits assumed, looked up): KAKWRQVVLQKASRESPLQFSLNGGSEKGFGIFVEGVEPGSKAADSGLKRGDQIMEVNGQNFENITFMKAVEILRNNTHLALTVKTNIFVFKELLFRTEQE
# T7: TJP3_3, O95049
# T7 sequence (O95049 375-456, limits assumed, looked up): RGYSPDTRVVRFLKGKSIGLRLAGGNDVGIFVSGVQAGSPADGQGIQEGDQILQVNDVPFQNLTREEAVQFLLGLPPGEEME
# T8: GRIP1_3, Q9Y3R0
# T8 sequence (Q9Y3R0 247-346, limits assumed, looked up): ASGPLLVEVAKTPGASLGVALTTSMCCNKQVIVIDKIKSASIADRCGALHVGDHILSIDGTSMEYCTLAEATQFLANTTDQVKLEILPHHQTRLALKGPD
# T9: GRIP1_2, Q9Y3R0
# T9 sequence (Q9Y3R0 145-248, limits assumed, looked up): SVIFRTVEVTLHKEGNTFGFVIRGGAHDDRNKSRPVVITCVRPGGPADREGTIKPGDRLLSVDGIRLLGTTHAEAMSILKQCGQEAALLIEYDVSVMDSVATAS
# T10: FRMPD1, Q5SYB0
# T10 sequence (Q5SYB0 52-145, limits assumed, looked up): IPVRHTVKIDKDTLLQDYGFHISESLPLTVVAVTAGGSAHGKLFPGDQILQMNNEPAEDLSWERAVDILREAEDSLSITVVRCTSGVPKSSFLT
# What was measured:
# Experiment in all cases: holdup assay
# Design in all cases: key: below the threshold = too weak to quantify, mostly under pKd 3.1 to 4
# Conditions in all cases: plain residues with an end cap or a label only (N-terminal biotin on a linker: ado-ado)
# GOPC, Q9HD26 = target: GOPC, Q9HD26
# LIN7A, O14910 = target: T1, LIN7A, O14910
# LNX1_3, Q8TBB1 = target: LNX1_3, Q8TBB1
# Sequence of LNX1_3, Q8TBB1 (Q8TBB1 500-596): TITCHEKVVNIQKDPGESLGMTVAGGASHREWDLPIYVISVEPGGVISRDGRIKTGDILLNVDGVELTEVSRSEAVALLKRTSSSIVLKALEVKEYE
# RHPN1, Q8TCX5 = target: T2, RHPN1, Q8TCX5
# PDZRN3_1, Q9UPQ7 = target: T3, PDZRN3_1, Q9UPQ7
# TJP2_1, Q9UDY2 = target: TJP2_1, Q9UDY2
# Sequence of TJP2_1, Q9UDY2 (Q9UDY2 24-128): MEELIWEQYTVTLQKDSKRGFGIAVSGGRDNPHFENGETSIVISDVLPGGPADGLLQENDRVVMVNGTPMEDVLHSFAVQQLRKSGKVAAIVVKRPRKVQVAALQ
# Inadl_10, Q8NI35 = target: Inadl_10, Q8NI35
# Sequence of Inadl_10, Q8NI35 (Q8NI35 1673-1763): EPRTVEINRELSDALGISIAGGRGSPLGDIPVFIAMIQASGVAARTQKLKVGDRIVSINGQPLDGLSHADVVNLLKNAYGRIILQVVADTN
# NHERF4_2, Q86UT5 = target: NHERF4_2, Q86UT5
# Sequence of NHERF4_2, Q86UT5 (Q86UT5 220-308): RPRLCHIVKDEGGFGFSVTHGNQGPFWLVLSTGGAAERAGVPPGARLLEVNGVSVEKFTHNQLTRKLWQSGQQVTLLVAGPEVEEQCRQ
# RADIL, Q96JH8 = target: T4, RADIL, Q96JH8
# GRIP1_5, Q9Y3R0 = target: T5, GRIP1_5, Q9Y3R0
# MAST2, Q6P0Q8 = target: MAST2, Q6P0Q8
# Sequence of MAST2, Q6P0Q8 (Q6P0Q8 1099-1202): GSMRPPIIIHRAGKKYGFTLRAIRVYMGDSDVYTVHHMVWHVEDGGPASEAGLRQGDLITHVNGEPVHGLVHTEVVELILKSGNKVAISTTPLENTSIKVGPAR
# RAPGEF6, Q8TEU7 = target: T6, RAPGEF6, Q8TEU7
# GORASP2, Q9H8Y8 = target: GORASP2, Q9H8Y8
# MAGI1_1, Q96QZ7 = target: MAGI1_1, Q96QZ7
# Sequence of MAGI1_1, Q96QZ7 (Q96QZ7 1-106): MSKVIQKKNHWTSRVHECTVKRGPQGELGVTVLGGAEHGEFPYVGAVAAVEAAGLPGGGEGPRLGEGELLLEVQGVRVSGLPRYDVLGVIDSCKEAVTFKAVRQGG
# GORASP1, Q9BQQ3 = target: GORASP1, Q9BQQ3
# Sequence of GORASP1, Q9BQQ3 (Q9BQQ3 1-208): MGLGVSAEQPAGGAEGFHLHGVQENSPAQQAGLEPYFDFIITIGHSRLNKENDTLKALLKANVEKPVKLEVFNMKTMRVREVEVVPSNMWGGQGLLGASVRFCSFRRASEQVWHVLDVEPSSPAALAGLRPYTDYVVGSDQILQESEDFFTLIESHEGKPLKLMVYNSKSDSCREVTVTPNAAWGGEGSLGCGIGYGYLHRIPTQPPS
# TJP3_3, O95049 = target: T7, TJP3_3, O95049
# GRIP1_3, Q9Y3R0 = target: T8, GRIP1_3, Q9Y3R0
# PDLIM1, O00151 = target: PDLIM1, O00151
# Sequence of PDLIM1, O00151 (O00151 1-87): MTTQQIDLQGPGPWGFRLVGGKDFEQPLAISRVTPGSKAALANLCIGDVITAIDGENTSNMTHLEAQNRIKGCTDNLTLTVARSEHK
# NHERF4_4, Q86UT5 = target: NHERF4_4, Q86UT5
# Sequence of NHERF4_4, Q86UT5 (Q86UT5 464-550): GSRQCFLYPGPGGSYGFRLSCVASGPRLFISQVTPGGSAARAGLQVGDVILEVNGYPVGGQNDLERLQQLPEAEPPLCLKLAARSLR
# GRIP1_2, Q9Y3R0 = target: T9, GRIP1_2, Q9Y3R0
# PDZRN4_1, Q6ZMN7 = target: PDZRN4_1, Q6ZMN7
# Sequence of PDZRN4_1, Q6ZMN7 (Q6ZMN7 213-318): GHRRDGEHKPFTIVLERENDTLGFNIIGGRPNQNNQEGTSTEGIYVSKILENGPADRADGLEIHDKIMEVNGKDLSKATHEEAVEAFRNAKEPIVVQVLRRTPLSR
# HTRA1, Q92743 = target: HTRA1, Q92743
# Sequence of HTRA1, Q92743 (Q92743 360-477): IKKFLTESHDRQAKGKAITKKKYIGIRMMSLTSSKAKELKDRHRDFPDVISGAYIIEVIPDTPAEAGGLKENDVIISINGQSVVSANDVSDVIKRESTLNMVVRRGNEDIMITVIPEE
# LNX1_1, Q8TBB1 = target: LNX1_1, Q8TBB1
# Sequence of LNX1_1, Q8TBB1 (Q8TBB1 261-371): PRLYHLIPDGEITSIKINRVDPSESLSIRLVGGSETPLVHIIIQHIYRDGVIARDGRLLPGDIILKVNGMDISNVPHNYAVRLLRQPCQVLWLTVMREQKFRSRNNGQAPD
# FRMPD1, Q5SYB0 = target: T10, FRMPD1, Q5SYB0
# DLG1_1, Q12959 = target: DLG1_1, Q12959
# SCRIB_1, Q14160 = target: SCRIB_1, Q14160
# Sequence of SCRIB_1, Q14160 (Q14160 718-814): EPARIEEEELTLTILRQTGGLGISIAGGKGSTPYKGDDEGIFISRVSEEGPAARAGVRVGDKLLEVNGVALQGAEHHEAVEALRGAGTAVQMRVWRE
# DLG5_1, Q8TDM6 = target: DLG5_1, Q8TDM6
# Sequence of DLG5_1, Q8TDM6 (Q8TDM6 617-713): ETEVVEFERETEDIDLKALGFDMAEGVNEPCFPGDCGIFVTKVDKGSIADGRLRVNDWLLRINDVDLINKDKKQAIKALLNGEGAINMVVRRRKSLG
# DLG4_3, P78352 = target: DLG4_3, P78352
# Sequence of DLG4_3, P78352 (P78352 306-403): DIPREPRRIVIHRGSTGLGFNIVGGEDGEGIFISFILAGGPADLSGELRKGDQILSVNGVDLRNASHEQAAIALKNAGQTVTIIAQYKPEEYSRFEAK
Binder,"pKd (GOPC, Q9HD26)","pKd (LIN7A, O14910)","pKd (LNX1_3, Q8TBB1)","pKd (RHPN1, Q8TCX5)","pKd (PDZRN3_1, Q9UPQ7)","pKd (TJP2_1, Q9UDY2)","pKd (Inadl_10, Q8NI35)","pKd (NHERF4_2, Q86UT5)","pKd (RADIL, Q96JH8)","pKd (GRIP1_5, Q9Y3R0)","pKd (MAST2, Q6P0Q8)","pKd (RAPGEF6, Q8TEU7)","pKd (GORASP2, Q9H8Y8)","pKd (MAGI1_1, Q96QZ7)","pKd (GORASP1, Q9BQQ3)","pKd (TJP3_3, O95049)","pKd (GRIP1_3, Q9Y3R0)","pKd (PDLIM1, O00151)","pKd (NHERF4_4, Q86UT5)","pKd (GRIP1_2, Q9Y3R0)",other results
"VISSDDLTEL [CAPN6, Q9Y6Q1]",below the threshold,below the threshold,below the threshold,4.5,below the threshold,below the threshold,below the threshold,below the threshold,below the threshold,below the threshold,5.67,below the threshold,below the threshold,below the threshold,below the threshold,below the threshold,below the threshold,below the threshold,below the threshold,below the threshold,"pKd (PDZRN4_1, Q6ZMN7): below the threshold; pKd (HTRA1, Q92743): 4.55; pKd (LNX1_1, Q8TBB1): below the threshold; pKd (FRMPD1, Q5SYB0): below the threshold; pKd (DLG1_1, Q12959): below the threshold; pKd (SCRIB_1, Q14160): 3.6; pKd (DLG5_1, Q8TDM6): below the threshold; pKd (DLG4_3, P78352): below the threshold"
"THHRKIHTRV [ZNF599, Q96NL3]",4.67,below the threshold,below the threshold,4,3.75,4.6,below the threshold,below the threshold,3.62,below the threshold,5.03,below the threshold,4.25,3.58,3.87,below the threshold,below the threshold,below the threshold,below the threshold,below the threshold,"pKd (PDZRN4_1, Q6ZMN7): below the threshold; pKd (HTRA1, Q92743): 3.67; pKd (LNX1_1, Q8TBB1): 4.06; pKd (FRMPD1, Q5SYB0): below the threshold; pKd (DLG1_1, Q12959): 5.07; pKd (SCRIB_1, Q14160): 3.98; pKd (DLG5_1, Q8TDM6): 3.72; pKd (DLG4_3, P78352): 4.38"
"NKSEPFLTWL [WWTR1, Q9GZV5]",4.16,below the threshold,below the threshold,4.64,3.76,5.59,4.63,below the threshold,5.57,below the threshold,5.65,below the threshold,4.9,3.69,5,4.15,below the threshold,4.13,4.21,below the threshold,"pKd (PDZRN4_1, Q6ZMN7): 4.27; pKd (HTRA1, Q92743): 4.91; pKd (LNX1_1, Q8TBB1): 4.13; pKd (FRMPD1, Q5SYB0): below the threshold; pKd (DLG1_1, Q12959): below the threshold; pKd (SCRIB_1, Q14160): 4.63; pKd (DLG5_1, Q8TDM6): below the threshold; pKd (DLG4_3, P78352): below the threshold"
"RGKNRRQSIF [CDK18, Q07002]",below the threshold,below the threshold,below the threshold,3.58,below the threshold,3.47,below the threshold,below the threshold,below the threshold,below the threshold,4.34,3.67,3.87,below the threshold,below the threshold,below the threshold,below the threshold,below the threshold,below the threshold,below the threshold,"pKd (PDZRN4_1, Q6ZMN7): below the threshold; pKd (HTRA1, Q92743): 4; pKd (LNX1_1, Q8TBB1): 3.95; pKd (FRMPD1, Q5SYB0): below the threshold; pKd (DLG1_1, Q12959): below the threshold; pKd (SCRIB_1, Q14160): below the threshold; pKd (DLG5_1, Q8TDM6): below the threshold; pKd (DLG4_3, P78352): 3.7"
